Measured values as given in patent US20160264653A1 (published 2016).

T1: EFNA4 antigen (human, UniProt P52798 26-170, limits assumed)
T1 construct: also called ephrin-A4 antigen
T1 sequence: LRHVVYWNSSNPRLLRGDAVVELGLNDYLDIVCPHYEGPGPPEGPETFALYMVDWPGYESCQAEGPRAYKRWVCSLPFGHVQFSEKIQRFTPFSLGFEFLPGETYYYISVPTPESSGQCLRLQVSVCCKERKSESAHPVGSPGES

T2: human ephrin-A4-His (human, UniProt P52798 26-170, limits assumed)
T2 construct: also called hEFNA4-ECD-His; EFNA4 His fusion protein; not shown: His tag
T2 sequence: T1 sequence

T3: mouse ephrin-A4-His (mouse, UniProt O08542 26-175, limits assumed)
T3 construct: also called murine EFNA4-His; not shown: His tag
T3 sequence (looked up): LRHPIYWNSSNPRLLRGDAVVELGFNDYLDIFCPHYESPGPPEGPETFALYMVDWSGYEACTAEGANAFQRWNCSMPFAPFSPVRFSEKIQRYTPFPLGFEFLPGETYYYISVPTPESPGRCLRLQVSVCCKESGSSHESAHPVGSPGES

T4: EphB4-Fc (human, UniProt P54760 16-539, limits assumed)
T4 construct: extracellular domain; not shown: human IgG1 Fc
T4 sequence (looked up): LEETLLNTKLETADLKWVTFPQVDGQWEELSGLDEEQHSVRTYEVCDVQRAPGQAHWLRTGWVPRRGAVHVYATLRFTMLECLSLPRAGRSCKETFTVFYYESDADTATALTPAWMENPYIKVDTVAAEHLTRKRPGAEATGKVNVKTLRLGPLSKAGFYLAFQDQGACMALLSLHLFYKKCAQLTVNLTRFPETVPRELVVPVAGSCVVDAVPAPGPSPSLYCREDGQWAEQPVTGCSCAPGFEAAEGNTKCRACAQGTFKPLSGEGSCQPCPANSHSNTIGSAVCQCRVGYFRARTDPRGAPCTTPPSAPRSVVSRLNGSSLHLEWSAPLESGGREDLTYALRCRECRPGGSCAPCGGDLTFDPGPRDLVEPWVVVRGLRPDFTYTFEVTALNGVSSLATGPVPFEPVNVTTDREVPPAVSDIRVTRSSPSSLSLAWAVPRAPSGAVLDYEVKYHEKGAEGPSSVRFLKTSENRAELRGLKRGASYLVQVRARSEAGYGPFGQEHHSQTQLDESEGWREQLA

B1: hSC4.47 (antibody, human IgG1, V domains shown)
VH: QVQLVQSGAEVKKPGASVKVSCKASGYTFTYFYMNWVRQAPGQGLEWVGQINPNNGGTAYAQKFQGRVTMTRDTSTSTVYMELSSLRSEDTAVYYCARWVGTHYFDYWGQGTTLTVSS
VL: EIVLTQSPATLSLSPGERATLSCRASQSVSSSSYTYIHWYQQKPGQAPRLLINFASNLESGIPARFSGSGSGTDFTLTISSLEPEDFAVYYCQHSWEIPPTFGGGTKLEIK
notes: also called humanized SC4.47
B2: hSC4.15 (antibody, V domains shown)
VH: EVQLVESGGGLVKPGGSLRLSCAASGFTFSTYGMSWVRQAPGKGLEWVATISSGGTYTYYPDSVKGRFKISRDNAKNSLYLQMNSLRAEDTAVYYCTRHDPNDGYYFLFAYWGQGTLVTVSS
VL: EIVLTQSPGTLSLSPGERATLSCKASQSVGNNVAWYQQKPGQAPRLLIYYASNRYTGIPDRFSGSGSGTDFTLTISRLEPEDFAVYYCQQHYSSPLTFGAGTKLEIK
notes: also called humanized SC4.15
B3: human ephrin-A4 ligand (EFNA4) expressed on the cell surface (ligand)
chain: T1 sequence
notes: GPI-anchored; Cells used: HEK293T.hEFNA4 (retroviral overexpression), parental HEK293T (low level), Jurkat, Z138, K562, PC3, NTX tumor cells; also called hEFNA4; HEK293T.hEFNA4 cells

Columns and labels:
EFNA4 antigen = molecular target: T1, EFNA4 antigen; experiment: SPR (Biacore); fixed antibody, antigen concentration series; 1:1 Langmuir model
Method: Finally, the affinity of selected modulators was measured by surface plasmon resonance (Biacore System, GE Healthcare). Based on a standard antigen concentration series and using a 1:1 Langmuir binding model, the Kd of the antibody binding to antigen and the kinetic constants kₒₙ and koff were determined.

[1] = molecular target: B3; experiment: cell-based or functional assay
human ephrin-A4-His = molecular target: T2, human ephrin-A4-His; experiment: ELISA; titrated ephrin-A4-His coated, 0.5 ug/ml hSC4.15 (FIG. 13C)
Method: (§1) More particularly titrated amounts of human and mouse ephrin-A4-His were coated on high protein binding 96-well plates in PBS at 4° C. for 16 hours. […] The ELISA was developed as described above using a donkey-anti human IgG polyclonal antibody conjugated to horseradish peroxidase (Jackson Immuno Research).

mouse ephrin-A4-His = molecular target: T3, mouse ephrin-A4-His; experiment: as above
Method: as §1

[2] = molecular target: T5, Fc portion of human IgG alone (human, UniProt P01857-1 100-330 = IgG part, limits assumed); experiment: flow cytometry on Jurkat cells (known to express EFNA) (FIG. 12A)
T5 construct: domain: Fc; also called human IgG Fcgamma1 fragment

EphB4-Fc = molecular target: T4, EphB4-Fc; experiment: flow cytometry; EphB-Fc on HEK293T.hEFNA4 cells (FIG. 20B)
Method: After washing twice, samples were resuspended in staining buffer containing 2 μg/ml DAPI and analyzed on a FACS Canto II (BD Biosciences) under standard conditions using the HTS attachment.

## B1
EFNA4 antigen
  Kd: < 0.1 nM

## B2
[1]
  EC50 (pM) of killing, saporin-Fab in vitro cytotoxicity assay, HEK293T.hEFNA4 cells: 13.7 pM
  EC50 (pM) of killing, saporin-Fab in vitro cytotoxicity assay, PC3 cells: 5.4 pM
Human ephrin-A4-His
  binding result: binds
Mouse ephrin-A4-His
  binding result: binds

## B3
[2]
  binding result: no binding
EphB4-Fc
  binding result: no binding
